{
  "source": "paper PMC8601601",
  "key": {"[1]": {"molecular_target": "human ACE2 with a C-terminal FLAG tag, on transduced HeLa cells (human) (UniProt Q9BYF1)", "test": "flow cytometry on cells"}, "[2]": {"molecular_target": "mink ACE2 with a C-terminal FLAG tag, on transduced HeLa cells (mink (Neovison vison))", "test": "flow cytometry on cells"}},
  "data": [
    {"substance": "WT S1 domain of SARS-CoV-2 spike C-terminally fused with a His tag (domain or fragment)", "values": [
      {"measurement": "percent of ACE2-expressing cells positive for S1-Fc", "setting": "[1]", "value": 86.5, "unit": "%"},
      {"measurement": "percent of ACE2-expressing cells positive for S1-Fc", "setting": "[2]", "value": 1.2, "unit": "%"}
    ]}
  ]
}
